Earlier results on one substance are cited in publication PMC8525647.

The data set concerns the target RAG2 (Homo sapiens) (UniProt P55895).
UniProt P55895, sequence (P55895 whole entry): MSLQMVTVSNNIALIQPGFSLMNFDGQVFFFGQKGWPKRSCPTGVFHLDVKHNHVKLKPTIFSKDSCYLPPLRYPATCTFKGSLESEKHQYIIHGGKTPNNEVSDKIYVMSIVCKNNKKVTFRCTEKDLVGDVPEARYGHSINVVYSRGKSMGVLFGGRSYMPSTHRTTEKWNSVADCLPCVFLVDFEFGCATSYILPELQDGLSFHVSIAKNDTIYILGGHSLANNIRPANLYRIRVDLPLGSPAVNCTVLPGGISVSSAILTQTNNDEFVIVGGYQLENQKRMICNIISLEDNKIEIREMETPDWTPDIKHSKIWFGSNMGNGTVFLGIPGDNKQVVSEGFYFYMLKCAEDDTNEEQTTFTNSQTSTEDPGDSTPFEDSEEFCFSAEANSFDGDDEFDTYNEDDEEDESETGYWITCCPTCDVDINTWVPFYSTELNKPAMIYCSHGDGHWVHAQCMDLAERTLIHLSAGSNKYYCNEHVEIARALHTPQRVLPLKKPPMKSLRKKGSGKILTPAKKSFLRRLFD

A word on the Kd: it is the constant that tells how readily two partners part at equilibrium. Turning to RAG1 (from UniProt P15918), the equilibrium dissociation constant (Kd) is 400 nM.
